This passage reports amount of 750S capsid in HP68-immunodepleted cell-free reactions after reconstitution results from patent US20030153066A1.

For this assay, the target named is HIV-1 Gag Pr55 (wild-type) (HIV-1) (UniProt P03348). Description: cell-based or functional assay.

For the substance “HuHP68-GST fusion protein (from UniProt P61221 1-599)”, the amount of 750S capsid in HP68-immunodepleted cell-free reactions after reconstitution was found to be 3 fold.
WGHP68-GST fusion protein: the amount of 750S capsid in HP68-immunodepleted cell-free reactions after reconstitution is 3 fold.
